Measurements from patent publication US20100166764A1 (Eli Lilly, published 2010).

Target: T1, mature myostatin (human, murine, rat, chicken, turkey, …, UniProt O08689 268-376 (mouse entry))
T1 construct: also called growth differentiation factor-8; GDF-8
T1 sequence: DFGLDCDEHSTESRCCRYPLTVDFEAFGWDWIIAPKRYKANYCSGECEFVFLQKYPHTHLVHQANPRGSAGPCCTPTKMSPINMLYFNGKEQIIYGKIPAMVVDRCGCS
Test: ELISA on plate-coated myostatin, periprep Fab in serial dilution, detection with goat anti-human-kappa-AP, O.D. against Fab concentration (ng/ml)
Protocol: ELISA plates are coated with myostatin diluted to 4 ug/ml in carbonate buffer (50 mM NaHCO₃ pH 8.3) and 50 μL added per well. Plates are covered with sealing tape and incubate overnight at 4° C. Thereafter, plates (Greiner U-bottom plates Cat #650061) are washed three times with PBS-T (0.1% Tween-20) using an automatic plate washer. 200 μL of blocking buffer (PBS+1% BSA+0.1% Tween-20) is added to every well and incubated at room temperature for one hour. Plates are washed and 50 μl of sample added per well. Samples are composed of periprep Fabs diluted in PBST/BSA starting at a 1:3 dilution and then serially diluted in half-log steps. Plates are washed and 50 μL of secondary antibody solution (1:2000 goat anti-human-kappa-AP Southern Biotech Cat # 2060-04 in PBST/BSA) is added to every well. Following an additional wash step, 100 μL of AP substrate is added per well and incubates at room temperature for about 10 minutes. The absorbance or OD at 560 nm is read. C12 or 510C2 is included on each ELISA plate as an affinity reference standard. The concentration of Fabs is determined by a quantitative ELISA using an anti-Fd antibody (Sheep anti-Fd Biodesign) to capture protein and goat anti-human-kappa-AP (Southern Biotech) to detect. A purified Fab standard is run on each plate to generate a standard curve for the concentration determinations.

B1: C12 Fab with the Asn residue in CDRL3 replaced with R (Fab, V domains shown)
VH: QLQLQESGPGLVKPSETLSLTCTVSGFSLRKVGSSVSWIRQPPGKGLEWIGHIYWDDDKRLNPSLRNRVTISVDTSKNQFSLKLSSVTAADTAVYYCARRAITTVIGGGTFDLWGQGTLVTVSS
VL: DIQMTQSPSSLSASVGDRVTITCSASSSISYMHWYQQKPGKAPKLLIYDTSKLARGVPSRFSGSGSGTDFTLTISSLQPEDFATYYCQQWYLRPLTFGGGTKVEIKR
notes: Periprep Fab
- binding result: binds
